Source: patent publication US20250283886A1
“And” between values parts separate entries of the source, which are not always exact repeats. Equal values may be shown once. Read-outs that look alike come from different tables or passages of the source.

What was measured:
[1] = target: … peptide containing N-terminal phenylalanine; experiment: single-molecule recognition of immobilized peptide, 500 nM of each binder
[2] = target: … peptide containing N-terminal phenylalanine; experiment: table of pulse statistics of the single-molecule recognition experiment
[3] = target: polypeptides with a terminal leucine residue; experiment: single-molecule dwell time analysis
[4] = target: polypeptides with a terminal leucine residue
[5] = target: polypeptides with a terminal leucine residue; remark: listed apart in the source
[6] = target: peptide having an N-terminal phenylalanine residue; experiment: single-molecule dwell time analysis, distribution of mean pulse durations, panel Phe; filtered 0.00s≤dur≤20.00s and magnitude above baseline > 15.0
[7] = target: peptide having an N-terminal tryptophan residue; experiment: single-molecule dwell time analysis, distribution of mean pulse durations, panel Trp; filtered 0.00s≤dur≤20.00s and magnitude above baseline > 15.0
[8] = target: polypeptides with a terminal leucine residue; experiment: single-molecule dwell time analysis, distribution of mean pulse durations, panel Leu; filtered 0.00s≤dur≤20.00s and magnitude above baseline > 15.0
[9] = target: peptide having an N-terminal tyrosine residue; experiment: single-molecule dwell time analysis, distribution of mean pulse durations, panel Tyr; filtered 0.00s≤dur≤20.00s and magnitude above baseline > 15.0

B1: at ClpS1 (Agrobacterium tumifaciens ClpS1) labeled with Cy3, Q8UFN4 1-117 (protein)
chain: MIAEPICMQGEGDGEDGGTNRGTSVITRVKPKTKRPNLYRVLLLNDDYTPMEFVIHILERFFQKDREAATRIMLHVHQHGVGECGVFTYEVAETKVSQVMDFARQHQHPLQCVMEKK
[1]
  mean pulse duration: 1.3 s
  pulse rate: 8.1 pulses/min
[2]
  N pulses: 98
  median pulse width: 0.63 s

B2: ClpS from Thermosynochoccus elongatus (teClpS), labeled (protein)
chain: MPQERQQVTRKHYPNYKVIVLNDDFNTFQHVAACLMKYIPNMTSDRAWELTNQVHYEGQAIVWVGPQEQAELYHEQLLRAGLTMAPLEPE
[3]
  mean pulse duration: 0.71 s
[4]
  pulse duration M: 0.46 s and 0.63 s
  pulse duration Mo: 0.5 s
  pulse duration µ: 0.74 s and 0.82 s
[5]
  pulse duration M: 0.43 s and 0.5 s
  pulse duration µ: 0.68 s and 0.65 s

B3: A. tumefaciens ClpS1 (protein)
chain: MIAEPICMQGEGDGEDGGTNRGTSVITRVKPKTKRPNLYRVLLLNDDYTPMEFVIHILERFFQKDREAATRIMLHVHQHGVGECGVFTYEVAETKVSQVMDFARQHQHPLQCVMEKK
[6]
  mean pulse duration (value at the dashed line): 0.59 s
[7]
  mean pulse duration (value at the dashed line): 0.34 s
[8]
  mean pulse duration (value at the dashed line): 0.31 s
[9]
  mean pulse duration (value at the dashed line): 0.69 s
